From patent publication US6399314B1, “Methods of detection of amyloidogenic proteins” (American Cyanamid Company, priority 1999, dated 2002)

What was measured:
[1] = target: T1, Aβ (1-40) (Homo sapiens, UniProt P05067); assay: CD spectroscopy of peptide aged in the presence of Congo red (coaggregates); type: biochemical; details: far-UV CD
T1 construct: Aβ (1-40) was dissolved in 100% hexafluoroisopropanol
Description: Circular Dichroism Spectroscopy. Conformational change of the peptide from the random coil to the β-sheet form, during aging, was monitored using changes to the molar ellipticity of the peptide at 200, 218, or 225 nm. This assay was also used to determine if the changes in the CD spectra occurred concurrently with the changes in the fluorescence spectra of thioflavin. The CD spectrum of the peptide was scanned at various time points to correlate the formation of thioflavin-binding macromolecular assemblies with the appearance of β-sheet conformation.
CD spectra were recorded on a JASCO™ spectropolarimeter model J715 (Jasco, Easton, Md.) at room temperature in a 0.1 cm pathlength cell. Typically, the peptide samples were aliquoted at various time intervals for fluorescence and the CD spectra were scanned using the remaining solution. The CD spectra of the peptide were recorded in the far-UV between 190-260 nm. The spectral results are expressed as deg.[…].dmol^−1.
Amyloid peptide (Aβ) was aged in the absence and presence of Congo red as described below: Aβ (1-40) was dissolved in 100% hexafluoroisopropanol to produce a final concentration of 200 or 400 μM. To aid dissolution of peptide, the solution was sonicated briefly, for about five seconds. An appropriate volume of the peptide solution was transferred to an amber vial and the solvent was evaporated under a stream of nitrogen. […]

[2] = target: T2, aggregated peptide (Aβ(1-40)) (Homo sapiens, UniProt P05067); assay: Quenching of thioflavin fluorescence by titration with Congo red; type: binding; details: for Mode of binding to aggregated peptide: Congo red and thioflavin together on aggregated peptide
T2 construct: Aβ(1-40) was purchased from Anaspec (San Jose, Calif.); purchased Anaspec (San Jose, Calif.); host or cells: synthetic peptide
Description: In these experiments, thioflavin was complexed with aggregated peptide prior to titration with increasing amounts of Congo red. The resulting decrease in fluorescence intensity is due to energy transfer of the fluorescence emission of thioflavin to Congo red. Therefore, assays that rely on thioflavin alone are likely to generate false positives in primary assays, while spectroscopic assays described in this invention would identify the more promising inhibitors of amyloidogenesis.
(§1) Spectroscopic Assays. To determine the extent of aggregation, aliquots of the peptide were removed at various time intervals (up to nine hours), and diluted into PBS buffer-containing 10 μM thioflavin. The final concentrations of peptide and thioflavin in the fluorescence assay were 10 μM. The fluorescence intensities of the peptide-thioflavin complex were measured at excitation and emission wavelengths of 435 and 485 nm, respectively, after the reaction had equilibrated for five minutes. Fluorescence spectral scans were made using 435 nm excitation and 485 nm emission wavelengths using a SPEX™ fluorolog-2 spectrofluorometer (Instruments S.A.®, Jobin Yvon-Spex, Edison, N.J.). For the Congo red experiments, peptide-thioflavin complex was titrated with increasing concentrations of Congo red from 0.1 to 3.5 micromolar concentrations. The fluorescence intensity changes were measured at the above-mentioned spectral wavelengths. When fluorescence intensities were measured in a plate reader, the peptide was diluted into PBS buffer-containing 10 μM thioflavin, to a final volume of 100 μL.

[3] = target: T3, β-amyloid protein 1-40 (Homo sapiens, UniProt P05067); assay: Fluorescence spectroscopy of Congo red complexes with amyloid peptide; type: binding
T3 construct: Aβ (1-40) was dissolved in 100% hexafluoroisopropanol
Description: 3. Fluorescence spectroscopy was used to differentiate complexes of Congo red. Congo red binds to preformed fibrils as well as to intermediate aggregate forms of the amyloid polypeptide. […] The fluorescence excitation spectrum of Congo red in the aggregate-bound state is also red shifted relative to the free form of the […]. Changes in the fluorescence properties of Congo red are dependent on the aggregated state of the […]. The differences in the observed spectral characteristics of the coaggregates and complexes of the fibrillar polypeptide with Congo red are due to the differences in the relative hydrophobicity of the binding sites and to the number of bound Congo red molecules in the complexes with preformed fibrils and coaggregates.
The fluorescence emission spectra of complexes of Congo red were obtained after diluting the peptide fivefold into a buffered solution. Congo red was added to freshly diluted fibrillar peptide and the fluorescence spectrum was scanned at a final concentration of 10 μM of peptide. The concentrations of peptide and Congo red in the fluorescence assay were 10 μM and 8.6 μM respectively. The differences in the fluorescence intensities and emission wavelengths of the coaggregates and preformed aggregate-complexes, were due to the relative differences in the hydrophobicity of the binding sites in the two instances.

[4] = test system: rat fetal (E18) hippocampal cultures; assay: Neurotoxicity assay (LDH release); type: cell-based; details: for Toxicity to neuronal cultures: 72 hour toxicity assay
Protocol: Neurotoxicity Assay. Peptide was aggregated according to the end points determined in the CD and fluorescence assay and applied to primary neuronal cell cultures to assess cytotoxicity of the aggregated peptide. The release of LDH was used to monitor cell viability in the presence of Aβ and Congo red.
Aβ(1-40) toxicity was assessed using eight day-in-vitro (DIV) rat fetal (E18) hippocampal cultures. The cells were cultured in 48-well dishes previously coated with […] 0.1 mg/ml of poly-L-lysine (100 μl/well) and, subsequently, with 100 μl/well of 5 μg/ml of mouse laminin. The cells were seeded at a density of 92,300 cells/well in a total volume of 500 μl of NEUROBASAL™ medium containing 1XB27 supplement, 5% heat inactivated and qualified fetal bovine serum, 0.5 mM glutamine, 50 μ/ml penicillin, and 0.05 mg/ml streptomycin, and were initially placed in humidified 5% CO2 in air. After twenty-four hours, the medium was replaced with fresh medium lacking the penicillin, streptomycin, and fetal bovine serum and the cultures were thereafter maintained in air containing 5% CO2 and 9% O2. Fresh medium was substituted into each well on day five. On the seventh day in vitro, the medium was replaced with antioxidant free B27 supplemented medium lacking the penicillin, streptomycin, and fetal bovine serum. The toxicity test was initiated on the eighth day in vitro by substituting into each well 500 μl of the medium used on day seven (as the control treatment) or an experimental solution prepared with the final (control) medium. Each experimental solution was tested on cultures contained in five wells. Toxicity was assessed on the eleventh day in vitro using the lactic acid dehydrogenase (LDH; Sigma 340-UV) assay. Aggregated peptide was diluted five-fold to a final concentration of 10 uM, for the toxicity assays. Complexes of Congo red with preformed aggregates and those formed in co-aggregates were tested in the cellular assays along with aggregated peptide in vehicle controls.

[5] = Thioflavin fluorescence assay of the extent of aggregation of Aβ(1-40) in different buffers/media; type: physicochemical; set-up: key to Percent Aggregation in HEPES: ++ indicates aggregates were formed but not quantitated because end point was not reached; details: rotary shaker 500 rpm
Description: Fluorescence Spectroscopy. Thioflavin binds amyloid fibrils to induce a characteristic hyperchromic fluorescence shift in the spectrum (LeVine, J. Exp. Clin. Invest., 2:1-6, 1995). The induced fluorescence due to thioflavin is specific for amyloid β-pleated fibrils, but not for other β-sheet structures or for the soluble oligomeric forms of the peptide. Free thioflavin is a weak fluorophore with an excitation maximum at 330 nm. Upon binding to the amyloid fibrils, the fluorescence of thioflavin is enhanced with a red shift in the excitation spectrum by 100 nm, relative to the free form. We have used the increase in fluorescence intensity at excitation and emission wavelengths of 440 nm and 485 nm, respectively, to characterize the aggregation event.
as §1
Preparation ofAmyloid Peptide. Aβ(1-40) was purchased from Anaspec (San Jose, Calif.) and its chemical purity was verified using reverse phase HPLC, ESI-MS and protein sequencing methods. The lyophilized peptide was dissolved in hexafluoroisopropanol (HFIP) solvent to aid in disaggregation of peptide. Peptide in HFIP solvent, was stored at −80° C. Prior to use, peptide solution was thawed and the solvent was evaporated under a stream of nitrogen. The peptide was dissolved in buffer to obtain a concentration of 50 μM, sonicated approximately twenty to forty seconds, and then vortexed briefly, approximately five seconds or less, to aid dissohltion of peptide. To determine the effects of media on the rates of aggregation, peptide was dissolved in one of the following buffers: PBS, 50 mM HEPES™ or in NEUROBASAL™ medium. Peptide solutions were dispensed into microtiter plates at a final concentration of […] in 100 μL. Aggregation was initiated by shaking plates continuously in a rotary shaker.

T2 sequence (P05067 672-711 limits assumed): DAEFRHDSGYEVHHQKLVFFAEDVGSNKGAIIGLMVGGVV
T3 sequence (P05067 672-711 limits assumed): as above
T1 sequence (P05067 672-711 limits assumed): as above

Nc1c(/N=N/c2ccc(-c3ccc(/N=N/c4cc(S(=O)(=O)[O-])c5ccccc5c4N)cc3)cc2)cc(S(=O)(=O)[O-])c2ccccc12.[Na+].[Na+] [Congo red]
Effect on aggregation rate of the peptide [1]: slowed down | Mode of binding to aggregated peptide [2]: non-competitively | Quenching of fluorescence of free thioflavin ([2]; free thioflavin): 50% | Quenching of fluorescence of peptide-bound thioflavin ([2]; peptide-bound thioflavin, Congo red 0.1 to 3.5 micromolar): greater than one order of magnitude | Fluorescence enhancement relative to the free form ([3]; Congo red co-aggregated with the amyloid polypeptide): eight-fold | Fluorescence enhancement relative to the free form ([3]; complex between preformed fibrils and Congo red): two-fold | Effect on toxicity of Aβ ([4]; Congo red complexed with preformed aggregates and in co-aggregates): attenuates the toxicity | Neuroprotection of cell cultures exposed to amyloid peptide ([4]; hippocampal cultures, LDH release): neuroprotective

Cc1ccc2c(c1)sc(-c1ccc(N(C)C)cc1)[n+]2C.[Cl-] [thioflavin, Thioflavin T]
Mode of binding to aggregated peptide [2]: non-competitively

Aβ (1-40): synthetic β-amyloid peptide corresponding to the first 40 amino acids of Aβ, purchased from Anaspec
Percent Aggregation in HEPES ([5]; aggregation time 0 hr): 0% | Percent Aggregation in PBS ([5]; aggregation time 0 hr): 0% | Percent Aggregation in NEUROBASAL Medium ([5]; aggregation time 0 hr, relative to thioflavin/Aβ fluorescence at 0 and 4 hr): 0% | Percent Aggregation in HEPES ([5]; aggregation time 1 hr): 0% | Percent Aggregation in NEUROBASAL Medium ([5]; aggregation time 1 hr): 0% | Percent Aggregation in PBS ([5]; aggregation time 1 hr): 0% | Percent Aggregation in HEPES ([5]; aggregation time 2 hr): 0% | Percent Aggregation in NEUROBASAL Medium ([5]; aggregation time 2 hr): 76% | Percent Aggregation in PBS ([5]; aggregation time 2 hr): 51% | Percent Aggregation in HEPES ([5]; aggregation time 4 hr): ++ | Percent Aggregation in NEUROBASAL Medium ([5]; aggregation time 4 hr): 100% | Percent Aggregation in PBS ([5]; aggregation time 4 hr): 100% | Toxicity to neuronal cultures ([4]; aggregated peptide (aged for four hours)): toxic | Toxicity to neuronal cultures ([4]; fresh peptide): non-toxic
